# Article PMC12004944
# Biological target: N-terminal six-histidine-tagged PepV (H6-PepV) (S. aureus) (UniProt Q2FXH9)
# Test: pull-down; purified His-tagged bait (H6-PepV or SecA-H6) incubated 1 h at 4°C with cleared lysate of S. aureus RN4220 WT or Δspa, then Ni-NTA resin; immunoblot with αSecA and αPepV sera
# Chain of UniProt Q2FXH9 (Q2FXH9 whole entry): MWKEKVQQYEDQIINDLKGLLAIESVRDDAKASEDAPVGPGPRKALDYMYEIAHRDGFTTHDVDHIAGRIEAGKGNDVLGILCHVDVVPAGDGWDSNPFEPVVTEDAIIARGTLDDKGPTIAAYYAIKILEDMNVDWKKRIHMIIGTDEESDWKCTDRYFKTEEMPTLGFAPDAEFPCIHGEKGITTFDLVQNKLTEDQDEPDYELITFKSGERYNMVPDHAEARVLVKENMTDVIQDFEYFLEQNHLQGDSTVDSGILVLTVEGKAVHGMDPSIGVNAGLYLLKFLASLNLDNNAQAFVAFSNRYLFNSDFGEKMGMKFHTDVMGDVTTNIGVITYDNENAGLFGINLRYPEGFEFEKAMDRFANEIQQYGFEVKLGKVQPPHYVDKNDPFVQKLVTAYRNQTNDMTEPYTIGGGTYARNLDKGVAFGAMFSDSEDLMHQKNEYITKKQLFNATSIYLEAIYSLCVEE
substance,measurement,value
"SecA (endogenous, S. aureus RN4220) (from UniProt Q2YSH6 1-843) (natural protein)","SecA eluted from H6-PepV beads with Δspa lysate, percent less than with WT lysate",30 % less
